Experimental findings from patent publication US20110123532A1 (ONCOMED PHARMACEUTICALS, published 2011) are described below.

Positions count from the first letter of the chain named.

As usually defined, the EC50 is the midpoint of the concentration-response curve. High values mean a less potent agent, low ones a more potent agent. As a reminder, the Kd is a measure of binding affinity in units of concentration.

Data set [1] addresses T1, human VEGF (human, UniProt P15692-4 27-191).
T1 construct: Immobilised on a CM5 chip for Biacore; the same name is used for the rhVEGF of the HUVEC assay; also called hVEGF; rhVEGF
In words: SPR (Biacore), VEGF surface; reference 219R0202 IgG. For orientation: SPR reads the build-up and loss of mass on a sensor chip optically.

In data set [2] the target is T2, full length human DLL4 on transfected human 293 HEK cells (human, UniProt Q9NR61 27-685).
T2 construct: whole, on cells; also called hDLL4 transfected cells; human DLL4 transfected cells
In words: flow cytometry on human 293 HEK cells transfected with full length human DLL4 and GFP; goat anti-human IgG H/L-PE; MFI against log(nM), non-linear fit. (In general: A flow cytometer gives signals particle by particle.)

The target in data set [3] is T1, human VEGF. Nature of the data set: SPR (Biacore), VEGF surface.
The target of data set [4] is T2, full length human DLL4 on transfected …. Nature of the data set: flow cytometry on HEK 293 cells transfected with human DLL4; reference 21M18. As for the experimental part:
Briefly, Human 293 HEK cells were transfected using Fugene 6 transfection reagent as recommended by the manufacturer (Roche Inc.). Cells were transfected with cDNA expression vector encoding full length human DLL4, as well as a second vector encoding green fluorescent protein, pcDNA-GFP, to mark the transiently transfected cells. […] Cells were then rinsed twice with Staining Medium (HBSS with 2% FCS) and incubated with fluorescent secondary antibody, goat-anti-human IgG H/L-phycoerythrin (PE), at 1:200 dilution in PBS for 1 hour. Cells were then analyzed by flow cytometry using a FACS Caliber instrument (BD Bioscience). Specific SBGSP binding was assessed by determining the presence of cells positive for GFP signal and PE signal.

The target of the next data set is T3, mouse VEGF (mouse, UniProt Q00731-2 27-190, limits assumed).
T3 construct: also called mVEGF
T3 sequence (looked up): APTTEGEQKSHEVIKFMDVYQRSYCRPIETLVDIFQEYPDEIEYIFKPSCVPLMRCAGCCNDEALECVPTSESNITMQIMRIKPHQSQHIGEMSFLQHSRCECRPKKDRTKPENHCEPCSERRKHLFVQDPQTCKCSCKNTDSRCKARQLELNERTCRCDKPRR
Nature of the data set: SPR (Biacore 2000), recombinant VEGF immobilised on CM5, IgG injected. As for the experimental part: (§1) IgG affinities were determined using a Biacore 2000 instrument. Briefly, recombinant proteins were immobilized on a CM5 chip using standard amine based chemistry (NHS/EDC). For each Fab and IgG, different concentrations (100-1 nM) were injected over the surface and kinetic data were collected over time. The data was fit using the simultaneous global fit equation to yield affinity constants (KD) for each Fab and IgG.

Data set [5] concerns the target T1, human VEGF. Described as above. Here is the method:
as §1

Data set [6] deals with the molecule itself. In words: non-reducing western blot of conditioned medium of transfected HEK293 cells, anti-FLAG (left, middle) and anti-Fc (right); homodimer of the minibody. From the text:
Var1 contains amino acid 249 Lys to Glu substitution and amino acid 288 Lys to Glu substitution within the CH3 domain. Antibody Var2 contains substitutions of amino acid 249 Lys to Glu substitution, amino acid 286 Tyr to Phe, and amino acid 288 Lys to Glu within the CH3 domain. Antibody Var3 (also referred to as 13A) contains substitutions of amino acid 236 Glu to Lys and amino acid 278 Asp to Lys. HEK293 cells were transiently transfected with combinations of expression vectors as indicated. Non-reducing Western blot analysis was conducted with an anti-FLAG antibody to reveal the size of the secreted antibody products.
Amino acid substitutions were introduced into either a truncated heavy chain (termed mini-body) containing the linker and CH2-CH3 region of a heavy chain, or a full length antibody heavy chain heavy chain.

For data set [7], the target named is T1, human VEGF. In words: Biacore dual targeting assay, high density VEGF surface, antibody first, then DLL4-Fc.
Target sequence in this assay (P15692 other isoform, or with tags, fused parts or gaps limits assumed): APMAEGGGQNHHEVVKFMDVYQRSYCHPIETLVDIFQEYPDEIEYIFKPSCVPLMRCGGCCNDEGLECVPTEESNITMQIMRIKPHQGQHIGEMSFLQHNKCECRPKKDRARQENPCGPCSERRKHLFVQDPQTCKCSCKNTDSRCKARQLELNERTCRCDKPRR
The target in data set [8] is T2, full length human DLL4 on transfected …. Nature of the data set: flow cytometry on human 293 HEK cells transfected with full length human DLL4 and GFP; goat anti-human IgG H/L-PE.

B1: 219R0202-21M18 monovalent bispecific antibody (MBSP) with common 21M18 light chain (bispecific antibody, human IgG2, kappa)
heavy 1: QVQLKQSGAELVKPGASVKLSCKASGYTFTNYWMHWVKLRPGQGFEWIGDINPSNGGTSYNEKFKRKATLTVDKSSSTAYMQLSSLTSEDSAVYYCTIHYYDNSYAMDYWGQGTSVTVSSASTKGPSVFPLAPCSRSTSESTAALGCLVKDYFPEPVTVSWNSGALTSGVHTFPAVLQSSGLYSLSSVVTVPSSNFGTQTYTCNVDHKPSNTKVDKTVERKCCVECPPCPAPPVAGPSVFLFPPKPKDTLMISRTPEVTCVVVDVSHEDPEVQFNWYVDGVEVHNAKTKPREEQFNSTFRVVSVLTVVHQDWLNGKEYKCKVSNKGLPAPIEKTISKTKGQPREPQVYTLPPSREKMTKNQVSLTCLVKGFYPSDIAVEWESNGQPENNYKTTPPMLKSDGSFFLYSKLTVDKSRWQQGNVFSCSVMHEALHNHYTQKSLSLSPGK
heavy 2: QVQLVQSGAEVKKPGASVKISCKASGYSFTAYYIHWVKQAPGQGLEWIGYISSYNGATNYNQKFKGRVTFTTDTSTSTAYMELRSLRSDDTAVYYCARDYDYDVGMDYWGQGTLVTVSSASTKGPSVFPLAPCSRSTSESTAALGCLVKDYFPEPVTVSWNSGALTSGVHTFPAVLQSSGLYSLSSVVTVPSSNFGTQTYTCNVDHKPSNTKVDKTVERKCCVECPPCPAPPVAGPSVFLFPPKPKDTLMISRTPEVTCVVVDVSHEDPEVQFNWYVDGVEVHNAKTKPREEQFNSTFRVVSVLTVVHQDWLNGKEYKCKVSNKGLPAPIEKTISKTKGQPREPQVYTLPPSREEMTKNQVSLTCLVEGFYPSDIAVEWESNGQPENNYKTTPPMLDSDGSFFLYSELTVDKSRWQQGNVFSCSVMHEALHNHYTQKSLSLSPGK
light: DIVMTQSPDSLAVSLGERATISCRASESVDNYGISFMKWFQQKPGQPPKLLIYAASNQGSGVPDRFSGSGSGTDFTLTISSLQAEDVAVYYCQQSKEVPWTFGGGTKVEIKRTVAAPSVFIFPPSDEQLKSGTASVVCLLNNFYPREAKVQWKVDNALQSGNSQESVTEQDSKDSTYSLSSTLTLSKADYEKHKVYACEVTHQGLSSPVTKSFNRGEC
notes: also called 219R0202_21M18 MBSP
In the case of B1, the “fold weaker binding affinity than 219R0202” value in the data set with human VEGF [1] is about 14 fold. In addition, in data set [2], the EC50 was found to be 6.2 nM. In addition, in the data set with human VEGF [3], binding was characterised by a dissociation constant (Kd) of 21 nM. Further, the “fold loss in DLL4 binding activity compared to 21M18” value in [4] is about 3 fold.

B2: 219R0302 IgG (anti-VEGF antibody reformatted to IgG2) (antibody, V domains shown)
VH: QVQLKQSGAELVKPGASVKLSCKASGYTFTNYWMHWVKLRPGQGFEWIGDINPSNGGTSYNEKFKRKATLTVDKSSSTAYMQLSSLTSEDSAVYYCTIHYYDNSYAMDYWGQGTSVTVSS
VL: DIQMTQSPSSLSASVGDRVTITCQASQDISNYVNWYQQKPGKAPKLLIYDASNLQTGVPSRFSGRGSGTHFTFTISSLQPEDLATYYCQQYDDLPPTFGRGTKLEIKR
notes: Mouse VH from immunised mice paired with a human kappa light chain from a phagemid library; also called 21R0302
As for B2, the Kd in the data set with human VEGF [3] was 2.1 nM; in the data set with mouse VEGF, 21 nM; with human VEGF [5], 2.1 nM.

B3: 219R0202 IgG (anti-VEGF antibody reformatted to IgG2) (antibody, V domains shown)
VH: B2 VH
VL: DIQLTQSPSSLSASVGDRVTITCRASQGINNHLAWYQQKPGKVPKSLIYAASNLHSGVPSKFSGSGSGTHFTLIISSLQPEDIATYYCQQYDNLPLTFGGGTKVEIKR
notes: Light chain variant of 219R0302 with the same heavy chain
Consider B3, for which the Kd with human VEGF [3] amounted to 1.5 nM; with mouse VEGF it was 23 nM; with human VEGF [5], 1.5 nM.

B4: FLAG tagged minibody with wild type human IgG2 CH2 and CH3 domains (WT) (other)
chain: DYKDDDDKCVECPPCPAPPVAGPSVFLFPPKPKDTLMISRTPEVTCVVVDVSHEDPEVQFNWYVDGVEVHNAKTKPREEQFNSTFRVVSVLTVVHQDWLNGKEYKCKVSNKGLPAPIEKTISKTKGQPREPQVYTLPPSREEMTKNQVSLTCLVKGFYPSDIAVEWESNGQPENNYKTTPPMLDSDGSFFLYSKLTVDKSRWQQGNVFSCSVMHEALHNHYTQKSLSLSPGK
notes: also called WT minibody
As for B4, in data set [6], the binding result is reported as “binds”.

B5: FLAG tagged minibody variant Var1 (13B) (other)
chain: B4 chain with K155E, K194E
On to B5, for which the binding result in data set [6] is given as “binds”.

B6: 219R0202-21M18 single gene bispecific antibody (SGBSP) (bispecific antibody, human IgG2, kappa)
chain 1: DIQLTQSPSSLSASVGDRVTITCRASQGINNHLAWYQQKPGKVPKSLIYAASNLHSGVPSKFSGSGSGTHFTLIISSLQPEDIATYYCQQYDNLPLTFGGGTKVEIKRTVAAPSVFIFPPSDEQLKSGTASVVCLLNNFYPREAKVQWKVDNALQSGNSQESVTEQDSKDSTYSLSSTLTLSKADYEKHKVYACEVTHQGLSSPVTKSFNRGECGGGGGSGGGGSGGGGSGGGGSGGGGSGGGGSQVQLKQSGAELVKPGASVKLSCKASGYTFTNYWMHWVKLRPGQGFEWIGDINPSNGGTSYNEKFKRKATLTVDKSSSTAYMQLSSLTSEDSAVYYCTIHYYDNSYAMDYWGQGTSVTVSSASTKGPSVFPLAPCSRSTSESTAALGCLVKDYFPEPVTVSWNSGALTSGVHTFPAVLQSSGLYSLSSVVTVPSSNFGTQTYTCNVDHKPSNTKVDKTVERKCCVECPPCPAPPVAGPSVFLFPPKPKDTLMISRTPEVTCVVVDVSHEDPEVQFNWYVDGVEVHNAKTKPREEQFNSTFRVVSVLTVVHQDWLNGKEYKCKVSNKGLPAPIEKTISKTKGQPREPQVYTLPPSREKMTKNQVSLTCLVKGFYPSDIAVEWESNGQPENNYKTTPPMLKSDGSFFLYSKLTVDKSRWQQGNVFSCSVMHEALHNHYTQKSLSLSPGK
chain 2: DIVMTQSPDSLAVSLGERATISCRASESVDNYGISFMKWFQQKPGQPPKLLIYAASNQGSGVPDRFSGSGSGTDFTLTISSLQAEDVAVYYCQQSKEVPWTFGGGTKVEIKRTVAAPSVFIFPPSDEQLKSGTASVVCLLNNFYPREAKVQWKVDNALQSGNSQESVTEQDSKDSTYSLSSTLTLSKADYEKHKVYACEVTHQGLSSPVTKSFNRGECGGGGSGGGGSGGGGSGGGGSGGGGSGGGGSQVQLVQSGAEVKKPGASVKISCKASGYSFTAYYIHWVKQAPGQGLEWIGYISSYNGATNYNQKFKGRVTFTTDTSTSTAYMELRSLRSDDTAVYYCARDYDYDVGMDYWGQGTLVTVSSASTKGPSVFPLAPCSRSTSESTAALGCLVKDYFPEPVTVSWNSGALTSGVHTFPAVLQSSGLYSLSSVVTVPSSNFGTQTYTCNVDHKPSNTKVDKTVERKCCVECPPCPAPPVAGPSVFLFPPKPKDTLMISRTPEVTCVVVDVSHEDPEVQFNWYVDGVEVHNAKTKPREEQFNSTFRVVSVLTVVHQDWLNGKEYKCKVSNKGLPAPIEKTISKTKGQPREPQVYTLPPSREEMTKNQVSLTCLVEGFYPSDIAVEWESNGQPENNYKTTPPMLDSDGSFFLYSELTVDKSRWQQGNVFSCSVMHEALHNHYTQKSLSLSPGK
notes: Heterodimer of two single-gene chains, anti-VEGF arm (13A) and anti-DLL4 arm (13B), IgG2; also called 219R0202_21M18 SGBSP; 219R0202-21M18 SGBSP
B6: the “fold weaker binding affinity than 219R0202” value with human VEGF [1] was about 5 fold. Besides, in data set [2], it took 10.2 nM to reach a half-maximal effect (EC50). In the data set with human VEGF [3], this molecule had a Kd of 6.9 nM. Also, the “fold loss in DLL4 binding activity compared to 21M18” value in data set [4] was about 5 fold.

B7: 21M18 (antibody, V domains shown)
VH: QVQLVQSGAEVKKPGASVKISCKASGYSFTAYYIHWVKQAPGQGLEWIGYISSYNGATNYNQKFKGRVTFTTDTSTSTAYMELRSLRSDDTAVYYCARDYDYDVGMDYWGQGTLVTVSS
VL: DIVMTQSPDSLAVSLGERATISCRASESVDNYGISFMKWFQQKPGQPPKLLIYAASNQGSGVPDRFSGSGSGTDFTLTISSLQAEDVAVYYCQQSKEVPWTFGGGTKVEIKR
notes: also called 21M18 antibody; anti-human DLL4 (21M18)
In the case of B7, the EC50 in data set [2] is 2 nM.

B8: Homo 13A (219R02) (antibody, human IgG2, kappa, V domains shown)
VH: B2 VH
VL: B7 VL
notes: also called 219R02 13A Homo; 219R0202 HC (with 13A mutation) expressed only with 21M18 LC
For B8, the binding result is reported as “binds” with human VEGF [7] and “no binding (tested: log(nM) about 1.8 (about 60 nM))” in data set [8].

B9: Homo 13B (21M18) (antibody, human IgG2, kappa, V domains shown)
VH: B7 VH
VL: B7 VL
notes: also called 21M18 HC (with 13B mutation) expressed only with 21M18 LC
As for B9, in data set [2], a half-maximal effect (EC50) was put at 7.7 nM.
